Measurements: the supplement of paper PMC10567573

B1: RIPK4 (parent)
chain: RERMELLEEAKKMEMAKFRYILPV

Variants of: B1
Assay: protein stability index of a GFP-peptide fusion (GPS, HEK-293T) (PSI 1-6); higher = more stable
Conditions: c terminus: a fixed tail appended
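Note: lentivirally expressed fusions sorted by FACS into six bins by GFP to DsRed ratio, PSI derived from sequencing read proportions per bin multiplied by bin number.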

| Variant | protein stability index |
| --- | --- |
| RERMELLEEAKKMEEAKFRYILPV [M15E] | 4.61 |
| RERMELLEEAKKMELAKFRYILPV [M15L] | 3.48 |
| RERMELLEEAKKMEHAKFRYILPV [M15H] | 4.28 |
| RERMELLEEAKKMESAKFRYILPV [M15S] | 4.59 |
| RERMELLEEAKKMEFAKFRYILPV [M15F] | 3.91 |
| RERMELLEEAKKMEGAKFRYILPV [M15G] | 3.59 |
| RERMELLEEAKKMEYAKFRYILPV [M15Y] | 3.41 |
| RERMELLEEAKKMEIAKFRYILPV [M15I] | 4.15 |
| RERMELLEEAKKMEWAKFRYILPV [M15W] | 2 |
| RERMELLEEAKKMEQAKFRYILPV [M15Q] | 3.34 |
| RERMELLEEAKKMERAKFRYILPV [M15R] | 3.97 |
| RERMELLEEAKKMEVAKFRYILPV [M15V] | 3.02 |
| RERMELLEEAKKMEPAKFRYILPV [M15P] | 4.15 |
| RERMELLEEAKKMEKAKFRYILPV [M15K] | 3.93 |
| RERMELLEEAKKMEMEKFRYILPV [A16E] | 2.9 |
| RERMELLEEAKKMEMCKFRYILPV [A16C] | 2.54 |
| RERMELLEEAKKMEMGKFRYILPV [A16G] | 3.31 |
| RERMELLEEAKKMEMIKFRYILPV [A16I] | 3.02 |
| RERMELLEEAKKMEMHKFRYILPV [A16H] | 4.27 |
| RERMELLEEAKKMEMFKFRYILPV [A16F] | 2.29 |
| RERMELLEEAKEMEMAKFRYILPV [K12E] | 3.46 |
| RERMELLEEAKIMEMAKFRYILPV [K12I] | 2.37 |
| RERMELLEEAKGMEMAKFRYILPV [K12G] | 2.36 |
| RERMELLEEAKHMEMAKFRYILPV [K12H] | 3.36 |

| Variant | protein stability index |
| --- | --- |
| RERMELLEEAKPMEMAKFRYILPV [K12P] | 3.5 |
| RERMELLEEAKCMEMAKFRYILPV [K12C] | 3.35 |
| RERMELLEEAKSMEMAKFRYILPV [K12S] | 2.75 |
| RERMELLEEAKDMEMAKFRYILPV [K12D] | 3.3 |
| RERMELLEEAKFMEMAKFRYILPV [K12F] | 2.5 |
| RERMELLEEAKVMEMAKFRYILPV [K12V] | 2.82 |
| RERMELLEEAKYMEMAKFRYILPV [K12Y] | 2.42 |
| RERMELLEEAKNMEMAKFRYILPV [K12N] | 3.23 |
| RERMELLEEAKQMEMAKFRYILPV [K12Q] | 3.41 |
| RERMELLEEAKLMEMAKFRYILPV [K12L] | 2.21 |
| RERMELLEEAKWMEMAKFRYILPV [K12W] | 2.65 |
| RERMELLEEAKAMEMAKFRYILPV [K12A] | 3.43 |
| RERMELLEEAKTMEMAKFRYILPV [K12T] | 2.9 |
| RERMELLEEAKMMEMAKFRYILPV [K12M] | 2.78 |
| RERMELLEEARKMEMAKFRYILPV [K11R] | 2.81 |
| RERMELLEEAEKMEMAKFRYILPV [K11E] | 3.97 |
| RERMELLEEAPKMEMAKFRYILPV [K11P] | 2.91 |
| RERMELLEEAHKMEMAKFRYILPV [K11H] | 3.05 |
| RERMELLEEAGKMEMAKFRYILPV [K11G] | 3.04 |
| RERMELLEEAVKMEMAKFRYILPV [K11V] | 2.32 |
| RERMELLEEAAKMEMAKFRYILPV [K11A] | 3.07 |
| RERMELLEEADKMEMAKFRYILPV [K11D] | 4.09 |
| RERMELLEEACKMEMAKFRYILPV [K11C] | 2.24 |
| RERMELLEEAYKMEMAKFRYILPV [K11Y] | 1.08 |

| Variant | protein stability index |
| --- | --- |
| RERMELLEEAWKMEMAKFRYILPV [K11W] | 2.51 |
| RERMELLEEAFKMEMAKFRYILPV [K11F] | 2.67 |
| RERMELLEEALKMEMAKFRYILPV [K11L] | 4.66 |
| RERMELLEEAMKMEMAKFRYILPV [K11M] | 2.45 |
| RERMELLEEASKMEMAKFRYILPV [K11S] | 3.37 |
| RERMELLEEAIKMEMAKFRYILPV [K11I] | 2.39 |
| RERMELLEEANKMEMAKFRYILPV [K11N] | 3.08 |
| RERMELLEEAQKMEMAKFRYILPV [K11Q] | 3.17 |
| RERMELLEEAKKLEMAKFRYILPV [M13L] | 3.37 |
| RERMELLEEAKKGEMAKFRYILPV [M13G] | 3.56 |
| RERMELLEEAKKIEMAKFRYILPV [M13I] | 3.59 |
| RERMELLEEAKKFEMAKFRYILPV [M13F] | 3.01 |
| RERMELLEEAKKSEMAKFRYILPV [M13S] | 3.51 |
| RERMELLEEAKKPEMAKFRYILPV [M13P] | 2.34 |
| RERMELLEEAKKAEMAKFRYILPV [M13A] | 3.1 |
| RERMELLEEAKKNEMAKFRYILPV [M13N] | 3.8 |
| RERMELLEEAKKHEMAKFRYILPV [M13H] | 3.13 |
| RERMELLEEAKKWEMAKFRYILPV [M13W] | 3.14 |
| RERMELLEEAKKEEMAKFRYILPV [M13E] | 3.19 |
| RERMELLEEAKKVEMAKFRYILPV [M13V] | 2.85 |
| RERMELLEEAKKTEMAKFRYILPV [M13T] | 3.06 |
| RERMELLEEAKKQEMAKFRYILPV [M13Q] | 3.31 |
| RERMELLEEAKKKEMAKFRYILPV [M13K] | 3.84 |
| RERMELLEEAKKYEMAKFRYILPV [M13Y] | 2.92 |

| Variant | protein stability index |
| --- | --- |
| RERMELLEEAKKMKMAKFRYILPV [E14K] | 2.21 |
| RERMELLEEAKKMTMAKFRYILPV [E14T] | 2.65 |
| RERMELLEEAKKMDMAKFRYILPV [E14D] | 3.8 |
| RERMELLEEAKKMNMAKFRYILPV [E14N] | 2.79 |
| RERMELLEEAKKMYMAKFRYILPV [E14Y] | 2.03 |
| RERMELLEEAKKMRMAKFRYILPV [E14R] | 2.06 |
| RERMELLEEAKKMMMAKFRYILPV [E14M] | 2.89 |
| RERMELLEEAKKMLMAKFRYILPV [E14L] | 2.44 |
| RERMELLEEAKKMFMAKFRYILPV [E14F] | 1.86 |
| RERMELLEEAKKMPMAKFRYILPV [E14P] | 3.29 |
| RERMELLEEAKKMQMAKFRYILPV [E14Q] | 3.12 |
| RERMELLEEAKKMGMAKFRYILPV [E14G] | 2.44 |
| RERMELLEEAKKMIMAKFRYILPV [E14I] | 2.16 |
| RERMELLEEAKKMWMAKFRYILPV [E14W] | 2.92 |
| RERMELLEEAKKMVMAKFRYILPV [E14V] | 1.71 |
| RERMELLEEAKKMAMAKFRYILPV [E14A] | 2.78 |
| RERMELLEEAKKMSMAKFRYILPV [E14S] | 2.86 |
| RERMELLEEAKKMCMAKFRYILPV [E14C] | 3.63 |
| RERMPLLEEAKKMEMAKFRYILPV [E5P] | 3.01 |
| RERMKLLEEAKKMEMAKFRYILPV [E5K] | 2.36 |
| RERMNLLEEAKKMEMAKFRYILPV [E5N] | 2.87 |
| RERMSLLEEAKKMEMAKFRYILPV [E5S] | 2.11 |
